Tests used:
[1] = target: the molecule itself; experiment: SEC; HiLoad 16/600 Superdex 200, solution B (20 mM HEPES pH 7.5, 100 mM NaCl, 0.5 mM TCEP), 4 °C; proteins prepared without ammonium sulfate treatment (bound nucleic acids kept); loads 25-70 µM
[2] = target: the molecule itself; experiment: dynamic light scattering; ~20 µM, 25 °C, 20 mM HEPES pH 7.5, 100 mM NaCl, 1 mM TCEP; Arc^WT was ammonium sulfate-treated (nucleotide-free)

B1: Arc ΔH1 (aa 33–70 deleted) (natural protein, mouse, UniProt Q9WV31 1-396, looked up)
chain: MELDHMTTGGLHAYPAPRGGPAAKPNVILQIGLENNLDGYVPTGDSQRWKKSIKACLCRCQETIANLERWVKREMHVWREVFYRLERWADRLESMGGKYPVGSEPARHTVSVGVGGPEPYCQEADGYDYTVSPYAITPPPAAGELPEQESVEAQQYQSWGPGEDGQPSPGVDTQIFEDPREFLSHLEEYLRQVGGSEEYWLSQIQNHMNGPAKKWWEFKQGSVKNWVEFKKEFLQYSEGTLSREAIQRELELPQKQGEPLDQFLWRKRDLYQTLYVDAEEEEIIQYVVGTLQPKLKRFLRHPLPKTLEQLIQRGMEVQDGLEQAAEPSGTPLPTEDETEALTPALTSESVASDRTQPE
notes: Arc (Arg3.1), mouse, lacking helix H1 (residues 33-70); Made by PCR from the full-length GST-Arc construct; source: E. coli Rosetta 2, purified (glutathione resin, released with TEV protease; with or without 35% ammonium sulfate precipitation); not shown: GST, N-terminal, cleaved
binding result [1]: binds

B2: Arc S84,90E phosphomimetic mutant (natural protein, mouse, UniProt Q9WV31 1-396, looked up)
chain: MELDHMTTGGLHAYPAPRGGPAAKPNVILQIGKCRAEMLEHVRRTHRHLLTEVSKQVERELKGLHRSVGKLENNLDGYVPTGDEQRWKKEIKACLCRCQETIANLERWVKREMHVWREVFYRLERWADRLESMGGKYPVGSEPARHTVSVGVGGPEPYCQEADGYDYTVSPYAITPPPAAGELPEQESVEAQQYQSWGPGEDGQPSPGVDTQIFEDPREFLSHLEEYLRQVGGSEEYWLSQIQNHMNGPAKKWWEFKQGSVKNWVEFKKEFLQYSEGTLSREAIQRELELPQKQGEPLDQFLWRKRDLYQTLYVDAEEEEIIQYVVGTLQPKLKRFLRHPLPKTLEQLIQRGMEVQDGLEQAAEPSGTPLPTEDETEALTPALTSESVASDRTQPE
notes: Arc (Arg3.1), mouse, with serines 84 and 90 mutated to glutamic acid; source: E. coli Rosetta 2, purified (glutathione resin, released with TEV protease); not shown: GST, N-terminal, cleaved
binding result [2]: binds

From publication PMC10815921, “Mimicking Protein Kinase C Phosphorylation Inhibits Arc/Arg3.1 Palmitoylation and Its Interaction with Nucleic Acids” (International Journal of Molecular Sciences, 2024)
